Results reported in the Immune Epitope Database (IEDB).

Assays:
HLA-A*02:01 [1] = assay: IEDB peptide-MHC binding, purified MHC/competitive/radioactivity; filed as Kd, often an IC50 or EC50 that approximates it; ≥ and ≤ were set here for values at or beyond the usual limits of such assays
HLA-B*18:01 = assay: as above
HLA-B*44:02 = assay: as above
HLA-B*45:01 = assay: as above
HLA-B*40:01 = assay: as above
HLA-B*44:03 = assay: as above
HLA-B*40:02 = assay: as above
HLA-B*15:01 [2] = assay: as above
HLA-A*01:01 = assay: as above; details: source organism: Dengue virus 2 Jamaica/1409/1983
HLA-B*15:01 [3] = assay: IEDB peptide-MHC binding, purified MHC/competitive/fluorescence; filed as Kd, often an IC50 or EC50 that approximates it; ≥ and ≤ were set here for values at or beyond the usual limits of such assays
HLA-A*02:02 = assay: IEDB peptide-MHC binding, purified MHC/competitive/radioactivity; filed as Kd, often an IC50 or EC50 that approximates it; ≥ and ≤ were set here for values at or beyond the usual limits of such assays; details: source organism: Vaccinia virus WR
HLA-A*02:03 = assay: as above; details: source organism: Vaccinia virus WR
HLA-A*02:06 = assay: as above; details: source organism: Vaccinia virus WR
HLA-A*02:01 [4] = assay: IEDB peptide-MHC binding, purified MHC/competitive/fluorescence; filed as Kd, often an IC50 or EC50 that approximates it; ≥ and ≤ were set here for values at or beyond the usual limits of such assays
HLA-A*23:01 = assay: IEDB peptide-MHC binding, purified MHC/competitive/radioactivity; filed as Kd, often an IC50 or EC50 that approximates it; ≥ and ≤ were set here for values at or beyond the usual limits of such assays; details: source organism: Dengue virus 1 Brazil/97-11/1997
HLA-A*24:02 = assay: as above; details: source organism: Dengue virus 1 Brazil/97-11/1997
[5] = source organism: Lymphocytic choriomeningitis virus (strain Armstrong)
[6] = source organism: Mammarenavirus machupoense
[7] = source organism: Mammarenavirus juninense
[8] = source organism: SARS coronavirus Tor2

QALTDLGLI
Kd (HLA-A*02:01 [1]; source organism: Lassa virus GA391): 3570 nM

QEADNMITEM
Kd (HLA-B*18:01; [5]): 1470 nM | Kd (HLA-B*44:02; [5]): 224 nM | Kd (HLA-B*45:01; [5]): 1190 nM | Kd (HLA-B*40:01; [5]): 5360 nM | Kd (HLA-B*44:03; [5]): 813 nM | Kd (HLA-B*40:02; [5]): 124 nM

QIHLAIMAVF
Kd (HLA-B*15:01 [2]; source organism: Dengue virus 4 Philippines/H241/1956): 17 nM

QMSSGNLLF
Kd (HLA-B*15:01 [2]; source organism: Dengue virus 2 Jamaica/1409/1983): 6.83 nM | Kd (HLA-A*01:01): 4390 nM

QNGALAINTF
Kd (HLA-B*15:01 [3]; source organism: Human herpesvirus 4 type 2): ≥ 20000 nM

RECYAQRFYL
Kd (HLA-B*18:01; [6]): 137 nM | Kd (HLA-B*44:02; [6]): 525 nM | Kd (HLA-B*45:01; [6]): 1440 nM | Kd (HLA-B*40:01; [6]): 9580 nM | Kd (HLA-B*44:03; [6]): 250 nM | Kd (HLA-B*40:02; [6]): 5.55 nM

RIEDMFLTSV
Kd (HLA-A*02:02): 548 nM | Kd (HLA-A*02:01 [1]; source organism: Vaccinia virus WR): 48 nM | Kd (HLA-A*02:03): 71 nM | Kd (HLA-A*02:06): 168 nM

RIMAWTVVNSI
Kd (HLA-A*02:01 [4]; source organism: Influenza A virus (A/chicken/California/1002a/00(H6N2))): ≤ 1 nM

RSSMKLLSY
Kd (HLA-B*15:01 [3]; source organism: Yersinia pestis Nepal516): 88.6 nM

SDQKFVDVI
Kd (HLA-B*18:01; [7]): ≥ 26300 nM | Kd (HLA-B*44:02; [7]): ≥ 25400 nM | Kd (HLA-B*45:01; [7]): 16700 nM | Kd (HLA-B*40:01; [7]): ≥ 70700 nM | Kd (HLA-B*44:03; [7]): ≥ 78100 nM | Kd (HLA-B*40:02; [7]): 4430 nM

SEAFLIGANY
Kd (HLA-B*18:01; [8]): 4.42 nM | Kd (HLA-B*44:02; [8]): 8.47 nM | Kd (HLA-B*45:01; [8]): 578 nM | Kd (HLA-B*40:01; [8]): ≥ 10000 nM | Kd (HLA-B*44:03; [8]): 3.75 nM | Kd (HLA-B*40:02; [8]): 348 nM

SEFSSLPSYA
Kd (HLA-B*18:01; [8]): 1060 nM | Kd (HLA-B*44:02; [8]): 343 nM | Kd (HLA-B*45:01; [8]): 25.3 nM | Kd (HLA-B*40:01; [8]): 431 nM | Kd (HLA-B*44:03; [8]): 13.1 nM | Kd (HLA-B*40:02; [8]): 22.4 nM

SELRPDTRY
Kd (HLA-B*18:01; [8]): 11200 nM | Kd (HLA-B*44:02; [8]): 520 nM | Kd (HLA-B*45:01; [8]): 1650 nM | Kd (HLA-B*40:01; [8]): 11300 nM | Kd (HLA-B*44:03; [8]): 714 nM | Kd (HLA-B*40:02; [8]): 3140 nM

TVLEKNVTV
Kd (HLA-A*02:01 [4]; source organism: Influenza A virus (A/Harbin/1/1988(H1N2))): 5.8 nM

VMAFIAFLRF
Kd (HLA-B*15:01 [2]; source organism: Dengue virus 1 Brazil/97-11/1997): 62.3 nM | Kd (HLA-A*23:01): 846 nM | Kd (HLA-A*24:02): 901 nM
